Results taken from article PMC2756588.

Assays:
Assay in all cases: SPOT array
Abp1, P15891 = target: T1, Abp1, P15891; settings: median of control spots 935
T1 sequence (P15891 535-592, looked up): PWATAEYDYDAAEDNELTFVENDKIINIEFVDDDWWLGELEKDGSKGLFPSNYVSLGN

Bbc1, P47068 = target: T2, Bbc1, P47068; settings: median of control spots 796
T2 sequence (P47068 1-78, looked up): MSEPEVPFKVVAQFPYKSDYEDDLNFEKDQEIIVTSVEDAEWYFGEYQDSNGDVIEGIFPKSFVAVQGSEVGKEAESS

Bem1-1, P29366 = settings: median of control spots 4282
Bem1-2, P29366 = settings: median of control spots 4347
Boi1, P38041 = target: T3, Boi1, P38041; settings: median of control spots 1162
T3 sequence (P38041 1-86, looked up): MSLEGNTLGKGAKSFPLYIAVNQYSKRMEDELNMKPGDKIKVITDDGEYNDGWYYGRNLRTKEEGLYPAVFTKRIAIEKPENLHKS

Boi2, P39969 = target: T4, Boi2, P39969; settings: median of control spots 1161
T4 sequence (P39969 32-116, looked up): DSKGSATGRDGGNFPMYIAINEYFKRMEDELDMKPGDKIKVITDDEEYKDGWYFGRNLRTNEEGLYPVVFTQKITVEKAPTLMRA

Bud14, P27637 = target: T5, Bud14, P27637; settings: median of control spots 956
T5 sequence (P27637 247-328, looked up): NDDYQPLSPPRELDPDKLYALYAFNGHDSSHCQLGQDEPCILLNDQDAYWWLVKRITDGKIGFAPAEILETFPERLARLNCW

Bzz1-1, P38822 = target: T6, Bzz1-1, P38822; settings: median of control spots 4446
T6 sequence (P38822 478-572, looked up): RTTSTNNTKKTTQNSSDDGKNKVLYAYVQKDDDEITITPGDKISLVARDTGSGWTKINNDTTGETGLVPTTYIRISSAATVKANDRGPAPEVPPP

Bzz1-2, P38822 = target: T7, Bzz1-2, P38822; settings: median of control spots 4538
T7 sequence (P38822 568-633, looked up): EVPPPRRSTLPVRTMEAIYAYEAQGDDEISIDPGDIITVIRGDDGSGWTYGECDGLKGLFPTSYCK

Cdc25, P04821 = target: T8, Cdc25, P04821; settings: median of control spots 969
T8 sequence (P04821 50-136, looked up): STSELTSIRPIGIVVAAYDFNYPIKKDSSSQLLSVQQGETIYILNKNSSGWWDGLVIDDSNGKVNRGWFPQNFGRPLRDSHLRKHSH

Cyk3, Q07533 = target: T9, Cyk3, Q07533; settings: median of control spots 1451
T9 sequence (Q07533 1-83, looked up): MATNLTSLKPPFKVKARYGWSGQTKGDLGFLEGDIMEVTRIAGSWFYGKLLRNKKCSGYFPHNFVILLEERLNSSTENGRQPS

Fus1, P11710 = target: T10, Fus1, P11710; settings: median of control spots 1200
T10 sequence (P11710 432-512, looked up): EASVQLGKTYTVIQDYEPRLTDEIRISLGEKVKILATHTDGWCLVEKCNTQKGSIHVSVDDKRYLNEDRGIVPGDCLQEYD

GST = settings: median of control spots 978
Hof1, Q05080 = target: T11, Hof1, Q05080; settings: median of control spots 4086
T11 sequence (Q05080 590-669, looked up): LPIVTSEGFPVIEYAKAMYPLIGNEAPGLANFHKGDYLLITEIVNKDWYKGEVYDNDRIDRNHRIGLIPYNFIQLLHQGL

Hse1, P38753 = target: T12, Hse1, P38753; settings: median of control spots 1727
T12 sequence (P38753 208-285, looked up): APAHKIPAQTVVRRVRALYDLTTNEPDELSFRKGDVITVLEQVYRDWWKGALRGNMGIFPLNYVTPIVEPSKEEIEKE

Lsb1, P53281 = target: T13, Lsb1, P53281; settings: median of control spots 388
T13 sequence (P53281 45-122, looked up): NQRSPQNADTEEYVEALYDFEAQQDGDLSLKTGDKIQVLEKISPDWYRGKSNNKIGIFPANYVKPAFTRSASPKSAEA

Lsb3, P43603 = target: T14, Lsb3, P43603; settings: median of control spots 406
T14 sequence (P43603 385-451, looked up): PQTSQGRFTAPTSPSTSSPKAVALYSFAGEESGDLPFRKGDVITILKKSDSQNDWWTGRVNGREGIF

Lsb4, P32793 = target: T15, Lsb4, P32793; settings: median of control spots 397
T15 sequence (P32793 402-468, looked up): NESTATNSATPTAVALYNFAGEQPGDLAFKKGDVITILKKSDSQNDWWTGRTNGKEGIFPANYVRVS

Myo3, P36006 = settings: median of control spots 468
Myo5, Q04439 = target: T16, Myo5, Q04439; settings: median of control spots 471
T16 sequence (Q04439 1072-1160, looked up): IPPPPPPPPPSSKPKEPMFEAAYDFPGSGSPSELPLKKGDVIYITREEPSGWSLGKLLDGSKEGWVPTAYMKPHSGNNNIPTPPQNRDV

Nbp2, Q12163 = target: T17, Nbp2, Q12163; settings: median of control spots 357
T17 sequence (Q12163 103-180, looked up): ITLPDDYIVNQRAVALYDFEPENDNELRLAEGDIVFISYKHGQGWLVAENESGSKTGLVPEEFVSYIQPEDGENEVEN

Pex13, P80667 = target: T18, Pex13, P80667; settings: median of control spots 1341
T18 sequence (P80667 295-386, looked up): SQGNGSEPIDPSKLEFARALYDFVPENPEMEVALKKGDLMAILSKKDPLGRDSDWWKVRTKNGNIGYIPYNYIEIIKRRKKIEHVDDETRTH

Pin3, Q06449 = target: T19, Pin3, Q06449; settings: median of control spots 2171
T19 sequence (Q06449 53-122, looked up): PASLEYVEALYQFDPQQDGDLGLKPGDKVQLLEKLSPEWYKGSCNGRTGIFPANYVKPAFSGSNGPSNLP

Rvs167, P39743 = settings: median of control spots 2707
Sho1, P40073 = settings: median of control spots 1148
Sla1-2, P32790 = target: T20, Sla1-2, P32790; settings: median of control spots 712
T20 sequence (P32790 60-140, looked up): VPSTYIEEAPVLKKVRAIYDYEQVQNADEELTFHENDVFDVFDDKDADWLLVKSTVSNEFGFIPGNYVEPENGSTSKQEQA

Sla1-3, P32790 = target: T21, Sla1-3, P32790; settings: median of control spots 5475
T21 sequence (P32790 344-424, looked up): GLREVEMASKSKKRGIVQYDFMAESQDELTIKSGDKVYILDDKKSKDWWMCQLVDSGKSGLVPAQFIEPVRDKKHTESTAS

Sho1, P40073, sequence (P40073 287-367): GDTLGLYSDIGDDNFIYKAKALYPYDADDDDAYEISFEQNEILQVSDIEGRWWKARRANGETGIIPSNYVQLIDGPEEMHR
Rvs167, P39743, sequence (P39743 419-482): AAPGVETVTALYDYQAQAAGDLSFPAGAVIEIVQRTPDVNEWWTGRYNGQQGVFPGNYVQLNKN
Bem1-2, P29366, sequence (P29366 139-227): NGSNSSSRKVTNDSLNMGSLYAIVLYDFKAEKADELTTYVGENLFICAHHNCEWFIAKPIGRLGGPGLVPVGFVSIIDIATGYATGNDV
Bem1-1, P29366, sequence (P29366 55-141): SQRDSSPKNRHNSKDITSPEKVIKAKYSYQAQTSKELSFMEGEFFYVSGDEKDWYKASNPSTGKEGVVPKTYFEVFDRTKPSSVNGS

Binder | SPOT intensity (Abp1, P15891) | SPOT intensity (Bbc1, P47068) | SPOT intensity (Bem1-1, P29366) | SPOT intensity (Bem1-2, P29366) | SPOT intensity (Boi1, P38041) | SPOT intensity (Boi2, P39969) | SPOT intensity (Bud14, P27637) | SPOT intensity (Bzz1-1, P38822) | SPOT intensity (Bzz1-2, P38822) | SPOT intensity (Cdc25, P04821) | SPOT intensity (Cyk3, Q07533) | SPOT intensity (Fus1, P11710) | SPOT intensity (GST) | SPOT intensity (Hof1, Q05080) | SPOT intensity (Hse1, P38753) | SPOT intensity (Lsb1, P53281) | SPOT intensity (Lsb3, P43603) | SPOT intensity (Lsb4, P32793) | SPOT intensity (Myo3, P36006) | SPOT intensity (Myo5, Q04439) | further results
APPLPPTAPPPPSLP | 0 | 0 | 0 | 89 | 0 | 0 | 0 | 0 | 0 | 2 | 0 | 0 | 1 | 51 | 12 | 0 | 0 | 0 | 537 | 559 | SPOT intensity (Nbp2, Q12163): 0; SPOT intensity (Pex13, P80667): 4; SPOT intensity (Pin3, Q06449): 0; SPOT intensity (Rvs167, P39743): 0; SPOT intensity (Sho1, P40073): 0; SPOT intensity (Sla1-2, P32790): 0; SPOT intensity (Sla1-3, P32790): 3
MFLISPPASPPPEFD | 0 | 0 | 0 | 0 | 2 | 0 | 0 | 0 | 0 | 2 | 1 | 0 | 0 | 1 | 0 | 0 | 0 | 0 | 326 | 219 | SPOT intensity (Nbp2, Q12163): 0; SPOT intensity (Pex13, P80667): 12; SPOT intensity (Pin3, Q06449): 65; SPOT intensity (Rvs167, P39743): 0; SPOT intensity (Sho1, P40073): 0; SPOT intensity (Sla1-2, P32790): 0; SPOT intensity (Sla1-3, P32790): 0
NPTKSPPPPPSPSTM | 28 | 0 | 1 | 0 | 0 | 0 | 2 | 124 | 253 | 3 | 1 | 1 | 1 | 0 | 0 | 0 | 0 | 4 | 436 | 223 | SPOT intensity (Nbp2, Q12163): 0; SPOT intensity (Pex13, P80667): 43; SPOT intensity (Pin3, Q06449): 109; SPOT intensity (Rvs167, P39743): 0; SPOT intensity (Sho1, P40073): 2; SPOT intensity (Sla1-2, P32790): 0; SPOT intensity (Sla1-3, P32790): 1
PPIPNAPLSPAPAVP | 0 | 0 | 0 | 0 | 0 | 0 | 2 | 0 | 1 | 2 | 0 | 0 | 0 | 0 | 0 | 0 | 0 | 0 | 483 | 443 | SPOT intensity (Nbp2, Q12163): 0; SPOT intensity (Pex13, P80667): 1; SPOT intensity (Pin3, Q06449): 0; SPOT intensity (Rvs167, P39743): 0; SPOT intensity (Sho1, P40073): 0; SPOT intensity (Sla1-2, P32790): 0; SPOT intensity (Sla1-3, P32790): 0
